Molecular target: KRas in human cancer cell lines with KRas mutations (HCT-116, SW480, LS180, LS174T) (human), P01116
Test: cell-based or functional assay

B1: K19-Cys-EEV12 (designed binder)
chain: MHHHHHHENLYFQGDLGKKLLEAARAGQDDEVRILMANGADVNASDRWGWTPLHLAAWWGHLEIVEVLLKRGADVSAADLHGQSPLHLAAMVGHLEIVEVLLKYGADVNAKDTMGATPLHLAARSGHLEIVEELLKNGADMNAQDKFGKTTFDISTDNGNEDLAEILQKLC
modifications: not checked
Work on B1 yielded an IC50 of cell viability (CellTiter-Glo, 72 h) on KRas mutant cell lines of 2 to 8 µM.
